The results in this text go back to PMC6269214 (Biochimica et biophysica acta. Proteins and proteomics, 2018).

The data set “SEC” deals with the molecule itself. Description: SEC. A general note: Size exclusion chromatography separates by hydrodynamic size, large species first.
The data set “SEC-MALS” concerns the molecule itself. The data set can be described thus: SEC-MALS.

B1: cavsol (full-length, soluble human caveolin-1 variant gen-2d) (other)
chain: MSGGKYVDSEGHLYTVPIREQGNIYKPNNKAMADELSEKQVYDAHTKEIDLVNRDPKHLNDDVVKIDFEDVIAEPEGTHSFDGIWKASFTTFTVTKYWFYRLLSAHEGIPMALSRGVEVAQVSDHHIRADDPCIKSFLIEIQCISRVYSIYVHTVCDPLFEAVGKIFSNVRINLQKEI
B1: the stoichiometry N (usually the number of molecules, sites or subunits per partner or assembly) in the data set “SEC” is 24 monomers; in the data set “SEC-MALS”, around 90 cav monomers.
